B1: pb2(65)-Ba (barnase fused to the first 65 amino acids of the N-terminal region of pre-cytochrome b2) (other)
chain: MLKYKPLLKISKNCEAAILRASKTRLNTIRAYGSTVPKSKSFEQDSRKRTQSWTALRVGAILAATAQVINTFDGVADYLQTYHKLPDNYITKSEAQALGWVASKGNLADVAPGKSIGGDIFSNREGKLPGKSGRTWREADINYTSGFRNSDRILYSSDWLIYKTTDHYQTFTKIR
notes: range 1-65;domain: folded ribonuclease barnase (Ba), 110-residue
B2: FhuA ΔC/Δ4L protein nanopore (engineered Escherichia coli ferric hydroxamate uptake component A lacking the cork domain and loops L3, L4, L5 and L11) (other)
chain: LKEVQFKAGTDSLFQTGFDFSDSLDDDGVYSYRLTGLARSANAQQKGSEEQRYAIAPAFTWRPDDKTNFTFLSYFQNEPETGNSEGSTYSRNEKMVGYSFDHEFNDTFTVRQNLRFAENKTSQNSVYGYGVNSEGSYLARKYVVDDEKLQNFSVDTQLQSKFATGDIDHTLLTGVDFMRMRNDINAWFGYNSEGSGPYRILNKQKQTGVYVQDQAQWDKVLVTLGGRYDWADQESLNRVAGTTDKRDDKQFTWRGGVNYLFDNGVTPYFSYSESFEPSSQVGKDGNIFAPSKGKQYEVGVKYVPEDRPIVVTGAVYNLTKTNNLMADPEGSFFSVEGGEIRARGVEIEAKAALSASVNVVGSYTYTDAEYTTDTTYKGNTPAQVPKHMASLWADYTFFDGPLSGLTLGTGGRYTGSSYGDPANSFKVGSYTVVDALVRYDLARVGMAGSNVALHVNNSEGSQVVATATFRF
B3: pb2(95)-Ba (barnase fused to the first 95 amino acids of the N-terminal region of pre-cytochrome b2) (other)
chain: MLKYKPLLKISKNCEAAILRASKTRLNTIRAYGSTVPKSKSFEQDSRKRTQSWTALRVGAILAATSSVAYLNWHNGQIDNEPKLDMNKQKISPAEAQVINTFDGVADYLQTYHKLPDNYITKSEAQALGWVASKGNLADVAPGKSIGGDIFSNREGKLPGKSGRTWREADINYTSGFRNSDRILYSSDWLIYKTTDHYQTFTKIR
notes: range 1-95;domain: folded ribonuclease barnase (Ba), 110-residue
B4: pb2(35)-Ba (barnase fused to the first 35 amino acids of the N-terminal region of pre-cytochrome b2) (other)
chain: MLKYKPLLKISKNCEAAILRASKTRLNTIRAYGSTAQVINTFDGVADYLQTYHKLPDNYITKSEAQALGWVASKGNLADVAPGKSIGGDIFSNREGKLPGKSGRTWREADINYTSGFRNSDRILYSSDWLIYKTTDHYQTFTKIR
notes: range 1-35;domain: folded ribonuclease barnase (Ba), 110-residue; also called pb2(35)-Ba/35

In assay [1] the target is B2. Kind of assay: single-channel recording at a higher applied voltage (+120 mV).
In assay [2] the target is B2. Kind of assay: single-channel recording at a higher applied voltage (+100 mV).
The target of assay [3] is B4. Kind of assay: single-channel electrical recording, planar lipid bilayer, analyte added trans, 1 M KCl, 10 mM potassium phosphate, pH 7.4.
For assay [4], the target named is T1, HIV-1 nucleocapsid protein (NCp7) (HIV-1, UniProt P04591 378-432).
T1 construct: domain: nucleocapsid protein (NCp7), 55 amino acids; also called NCp7/55
The assay is described as above.

Assay [5] addresses B4.

Here are results for 4 molecules from patent US20120003694A1 (SYRACUSE UNIVERSITY, published 2012).

For orientation: kon means a measure of how fast the partners come together. A higher kon goes with fast association. Broadly, the koff is a measure of how fast the partners let go of each other.

Where two headings read alike, the source gives them in different places.

Take B1: the “partition time at +120 mV” value in assay [1] is about 12 ms. Besides, in assay [2], the “partition time at +100 mV” value was about 4 ms.

Turning to B2, the on-rate (kon) turned out to be 180000 M⁻¹ s⁻¹ in assay [3], 2e+06 M⁻¹ s⁻¹ in assay [4] and 110000 M⁻¹ s⁻¹ in assay [5]. In addition, in assay [4], the koff worked out at 9000 s⁻¹.

For B3, in assay [1], the “partition time at +120 mV” value was about 12 ms. For the same molecule, the “partition time at +100 mV” value in assay [2] is about 4 ms.

With B4, in assay [1], the “partition time at +120 mV” value was about 12 ms. For the same molecule, in assay [2], the “partition time at +100 mV” value is about 4 ms.
